Tested on: C[C@]12CC[C@@H]3c4ccc(O)cc4CC[C@H]3[C@@H]1CC[C@@H]2O[C@@H]1O[C@H](C(=O)O)[C@@H](O)[C@H](O)[C@H]1O
Experiment: TP_TRANSPORTER: uptake in membrane vesicle from MDR1-expressing Sf9 cells
Format: functional, cell membranes

“ATP-dependent translocase ABCB1 (Homo sapiens)” was tested, and the Km was 62 µM.
